Test results from article PMC12272218.

Molecular target: T1, Uracil-DNA Glycosylase (UDG) (UniProt P12295)
T1 sequence: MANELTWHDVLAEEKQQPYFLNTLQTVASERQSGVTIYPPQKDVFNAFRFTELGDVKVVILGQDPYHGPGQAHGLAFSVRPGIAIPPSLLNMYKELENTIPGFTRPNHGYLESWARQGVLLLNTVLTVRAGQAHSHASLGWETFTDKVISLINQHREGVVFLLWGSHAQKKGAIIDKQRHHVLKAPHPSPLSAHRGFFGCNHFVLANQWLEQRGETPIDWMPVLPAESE

half-maximal inhibitory concentration of UGI on UDG activity, read by fluorescence of the dU-containing circular crRNA-assisted CRISPR-Cas12a system: 0.087 U/mL
Substance: uracil glycosylase inhibitor (UGI) (from UniProt P14739 1-84) (natural protein)
